Results taken from US6060595.

Target: HBV 21 kDa viral core protein (p21) (human hepatitis B virus (HBV))

Q: “Met-p22 (precore protein lacking the signal peptide sequence and having instead an initial methionine), expressed from pCMVKM22” was tested. Which HBV DNA replication, titration of plasmid molar ratios did it give?
A: Its HBV DNA replication, titration of plasmid molar ratios is 15 fold.
